Data reported in the nanobody polyreactivity screen of Harvey et al. (2022).

Assay: yeast display, Sf9 membrane polyspecificity reagent, FACS + sequencing; frameworks hold sequencing errors
Procedure, shortened: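 Synthetic nanobody libraries on Saccharomyces cerevisiae BJ5465 were galactose-induced for 36–48 hours, stained 1 hour at 4 °C with 10% biotinylated, detergent-solubilized Sf9 membrane reagent and enriched on streptavidin microbeads. FACS then separated cells into low and high (top ~1%) gates by anti-HA (expression) and streptavidin (reagent binding) fluorescence. Genes were colony-PCR amplified, MiSeq 2 × 250 sequenced and CDR-length filtered. A clone's polyreactivity label is that of its gate of origin.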

Sequence	polyreactivity (PSR sort gate)
QVQLVESGGGLVQAGGSLRLSCAASGLIFGYYTMGWYRQAPGKEREFVAAISRGGGSTYYADSVNGRFTISRDNAKNTVYLHMNSLKPEDTAVYYCAAVVYGQVQPAYDYWGQGTQVTVLS	high polyreactivity
QVQLVESGGGLVQAGGSLRLSCAASGLIFHGYAMGWYRQAPGKERELVAVITKNGGRTYYADSVKGRFTISRDTAKNTVYLQMNSLKPEDTAVYYCATGKNYWRGYEYWGQGTQVTVSS	high polyreactivity
QVQLVESGGGLVQAGGSLRLSCAASGLIFHKNAMGWYRQAPGKERELVATITSGGNTNYADSVKGRFTISRDNAKNTVYLQMNSLKPEDTAVYYCAKDTHLLNEHSGTSREYDYWGQGTQVTVSS	low polyreactivity
QVQLVESGGGLVQAGGSLRLSCAASGLIFHQYAMGWYRQAPGKERELVAAITRSGTRTYYADSVKGRFTISRDNAKNTVYLQMNSLKPEDTAVYYCAAGDTQGVSMDYWGQGTQVNVSS	high polyreactivity
QVQLVESGGGLVQAGGSLRLSCAASGLIFIAYAMGWYRQAPGKDRELVAAISSGGSTYADSVKRRFTISRDNAKNTVYLQMNSLKPEETAVYYCNADSWSGTTYFNFNYWGQGTQVTVSS	low polyreactivity
QVQLVESGGGLVQAGGSLRLSCAASGLIFIAYAMGWYRQAPGKEREFVAAITWNGVSTYYADSVKGRFTISRDNAKNTVYLQMNSLKPEDTAVYYCNADYVFSPWAYEYWGQGTQVTVSS	high polyreactivity
QVQLVESGGGLVQAGGSLRLSCAASGLIFILYAMGWYRQAPGKERELVAAISWTGGSTYYADSVKGRFTISRDNAKNTVYLQMNSLKPEDTAVYYCNKVGVRSGARSIYVVRRYEYWGQGTQVTVSS	high polyreactivity
QVQLVESGGGLVQAGGSLRLSCAASGLIFIQYAMGWYRQAPGKEREFVAAISWSGTSTHYADSVKGRFTISRDNAKNTVYFQMNSLKPEDTAVYYCAAAKTGRGRGTTGYGYWGQGTLVTVSS	high polyreactivity
QVQLVESGGGLVQAGGSLRLSCAASGLIFITYAMGWYRQAPGKERELVATITLRGGSTYYADSVKGRFTISRDNAKNTVYLQMNSLKPEDTAVYYCAARYFSYYILRRIYPVREDYWGQGTQVTVSS	low polyreactivity
QVQLVESGGGLVQAGGSLRLSCAASGLIFKSYAMGWSRQAPGKERELVAVISSSGGSTYYADSVKGRFTISRDNAKNTVYLQMNSLKPEDTAVYYCAARSTYRTGDYWGQGTQVTVSS	high polyreactivity
QVQLVESGGGLVQAGGSLRLSCAASGLIFKVYALGWYRQAPGQERELVAAITYSGGSTDYADSVKGRFTISRDNAKNTVYLQMNSLKPEDTAVYYCNVETVGHVNSYGYDYWGQGTQVTVSS	low polyreactivity
QVQLVESGGGLVQAGGSLRLSCAASGLIFKWYGMGWYRQAPGKERELVAAITENGGSTYYADSVKGRFTISRDNAKNTVYLQMNSLKPEDTAVYYCAAETWADWYSEFYWGQGTQVTVSS	high polyreactivity
QVQLVESGGGLVQAGGSLRLSCAASGLIFKYNAMGWYRHAPGKERELVAAISTSGGSTYYADSVKGRFTISRDNAKNTVYLQMNSLKPEDNAVYFCNAVAGRPFRYYYWGQGTQVTVSS	high polyreactivity
QVQLVESGGGLVQAGGSLRLSCAASGLIFKYNAMGWYRQAPGKERELVAAITWSGGITYADSVKGRFTISRDNAKNTVYLQMNSLKPEDTAVYYCAARGYWQPRPRRRYDYWGQGTQVTVSS	high polyreactivity
QVQLVESGGGLVQAGGSLRLSCAASGLIFKYNGRGWNRQAPGNVRELGAAITKRGGSTYYADSVKGRFTISRDKAKNTVYLQMNSLKPEDTAVYYCAAGRAGRKDYYWGQGTQVTVSS	high polyreactivity
QVQLVESGGGLVQAGGSLRLSCAASGLIFLDYAMGWYRQAPGKERELVAAISRSGGRTYYADSVKGRFTISGDNAKNTVYLQMNSLKPEDTAVYYCAADGSRKSEIYDYWGQGTQVTVSS	high polyreactivity
QVQLVESGGGLVQAGGSLRLSCAASGLIFLEYAMGWYRQAPGKEREMVAAISTSGGSTYYADSVKGRFTISRDNAKNTVYLQLNSLTPEDTAVYYCAADPVYNYYFDDGDYWGQGTQVTVSS	low polyreactivity
QVQLVESGGGLVQAGGSLRLSCAASGLIFLGNAMGWYRQAPGKERELVAAISRSGGTTYYADSVKGRFTISRDNAKNTVYLQMNSLKPEDTAVYYCNAYNPYYRATVSSRGYGYWGQGTQVTVSS	high polyreactivity
QVQLVESGGGLVQAGGSLRLSCAASGLIFLRYAMGWYRQAPGTERELVAVISSGGRTYYADSVKGRFTISRDNAKNTVYLQMNSLKPEDTAVYYCAARTRSYWGTYGSYHYDYWGQGTQVTVSS	high polyreactivity
QVQLVESGGGLVQAGGSLRLSCAASGLIFLSHTMGWYRQAPGKERELVATIDGGAGSTYYADSVKGRFTFSRDNAKNTVYLQMNSLKPEDTAVYYCAATTIPGWFGSFPVSAGDYWGQGTQVTVSS	low polyreactivity
QVQLVESGGGLVQAGGSLRLSCAASGLIFLWYAMGWYRQAPGKERELVAAIRSSGDSTYYADSVKGRFTISRDNAKNTVYLQMNSLKPEDTAVYYCNRRKTNSRYDYCGQGTQVTVSS	low polyreactivity
QVQLVESGGGLVQAGGSLRLSCAASGLIFNIYAMGWYRQAPGKARELVATIRYSGGSTNYADSVKGRFTISRDNAKNTVYLQMNSLKPEVTAVYYCNAGYYPTGYDYWGQGTQVTVSW	low polyreactivity
